Target: CD161 (human)
Assay: other (literature value, Kamishikiryo et al 2011)

CD161 (human), sequence (chain, as listed by the source): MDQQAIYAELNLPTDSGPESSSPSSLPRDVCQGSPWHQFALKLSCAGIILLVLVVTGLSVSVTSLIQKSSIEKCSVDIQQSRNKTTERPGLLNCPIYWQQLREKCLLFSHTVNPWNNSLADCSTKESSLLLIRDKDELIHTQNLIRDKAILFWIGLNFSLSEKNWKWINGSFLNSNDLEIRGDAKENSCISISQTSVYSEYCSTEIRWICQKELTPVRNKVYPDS

Kd: 48 µM
B1: CLEC2D (protein)
chain: RANCHQEPSVCLQAACPESWIGFQRKCFYFSDDTKNWTSSQRFCDSQDADLAQVESFQELNFLLRYKGPSDHWIGLSREQGQPWKWINGTEWTRQFPILGAGECAYLNDKGASSARHYTERKWICSKSDIHV

Reference: patent US20260308262 (published 2026)
